The data set in a line: yeast display, Sf9 membrane polyspecificity reagent, FACS + sequencing; frameworks hold sequencing errors. The method in brief: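 In a synthetic yeast display library (Saccharomyces cerevisiae BJ5465), nanobody expression was induced with galactose for 36–48 hours. FACS gates were set low and high (top ~1%) using anti-HA fluorescence for expression and streptavidin fluorescence for binding of the Sf9 membrane reagent. Each polyreactivity label is drawn from the gate of origin.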
For “QVQLVESGGGLVQAGGSLRLSCAASGSTFQIYAMGWYRQPPGKDRELVAANTSSSSTNYADSVKGRFTISRENAKNTVYLQMNSLKPEDTAVYYCAAAVSWRSNWYDYWGQGTQVTVSS”, the “polyreactivity (PSR sort gate)” value is “low polyreactivity”. Turning to “QVQLQESRGGLLQAGGSLCLSCAASGNIIFDGDMRWYRQAPGKEREFVAAINPGGSAYYADSVKGRLPLAAITHTVYLQLNSLNPPDTAVYYCAAKLFDVYGYYYWGQGTHVTVSS”, the “polyreactivity (PSR sort gate)” value is “low polyreactivity”. For the sequence “QVQLVESGGGLVQAGGSLRLSCAASGFTFRYYAMGWYRQAPGKERELVAAISWSGASTYYADSVKGRFTISRDNAKNTVYLQMNSLKPEDTAVYYCAADIPGTYYYWGQGTQVTVSS”, the “polyreactivity (PSR sort gate)” value is on record as “high polyreactivity”. As for “QVQLVESGGGLVQAGGSLRLSCSASGSIFPYYAMGWSRQAPGKERELVAAISRSGGSTYYADSVKGRFTISRDNAKNTVYLQMNSLKPEDTAGYYCAAVGGVRPQQHYYYRYDYWGQGTQVTVSS”, the “polyreactivity (PSR sort gate)” value is “high polyreactivity”. On to “QVQLVESGGGLVQAGGSLRLSCAASGSTFYPNAMGWYRQAPGKERELVAAITSGGSTYYADSVKGRFTSSRDNAKNTVYLQMTSLKPEDTAVYYCAAQRRYHQDTTIGPGNYSYWGQGTQVTVSS”, for which the “polyreactivity (PSR sort gate)” value is “low polyreactivity”. Next, “QVQLVESGGGLVQAGGSLRLSCAASGFIFSSYTMGWYRQAPGKERELVAAITSRGGSTYYADSVKGRLTISRDNAKNTVYLQMNSLKPEDTAVYDWNARRIPYSPYGVHEGYYWGLGTQVTVSS”: “high polyreactivity”. Consider “QVQLVESGGGLFQAGGSLRLSCAASGRIYPTYTMGWYRQAPGKERQLVAAINRGGGSTYYADSVKGRFTISRDYAKNTVYLQMICLKPEDTAVYYCNARTYYRSYGYDYWGQGTQVTVSS”, for which the “polyreactivity (PSR sort gate)” value is “low polyreactivity”. Regarding “QGQLVESGGGLVQAGGSLRLSCAASGGIFTDYAMGWYRQAPGKERELVAAITRRGGRTYYADSVKGRFTISRDNAKNPVYLQMNSLKPEDTAVYYCAATRSGEYDYWGQGTQVTVSS”, the “polyreactivity (PSR sort gate)” value is listed as “high polyreactivity”. Consider “QVQLQESGGLVQAGGLRLSCAASGYVSYQEAMGWYRQAPGKEREIVATISFGANTNYADSVKGRFTISRDNAKNTVYLQMNSLKPEDTAVYYCAAESLFDVYYGYWGQGTQVTVSS”, for which the “polyreactivity (PSR sort gate)” value was “low polyreactivity”. Next, “QVQLVESGEGLVQAGGSLRLSCAASGSTFTYNAMGWYRHAPGKERELVAAIDWDGDTTYYADSVKGRFTISRDNAKNTVYLQMNSLKPEDTAVYYCAARPKYPYYARYDYWGQGTQVTVSS”: “high polyreactivity”. Consider “QVQLVESGGGLVQAGGSLRLSCAASGSIFYSNVMGWYRQAPGKERELVASITNGGGTYYADSVKGRFTISRDNAKNTVYLQMNSLKPEDTAVYYCAADPDRTAYDYWGQGTQVTVSS”, for which the “polyreactivity (PSR sort gate)” value is given as “low polyreactivity”.

As for “QVQLVESGGGLVQAGGSLRLSCAASGSTFAYNAMGWYRQAPGKERELVAAISGSTTRTYYADSVKGRFTISRDNAKNTVYLQMNSLKPEDTAVYYCAAGIPFRQRLRRYYYWGQGTQVTVSS”, the “polyreactivity (PSR sort gate)” value is on record as “high polyreactivity”. Consider “QVQLVESGGGLVQAGGSLRLSCAASGRIFHYAMGWYRQAPGKERELVAGISKRGGSTYYADSVKGRFTISRDNAKNTVYLQMNSLKPEDTAVYYCAAGRAYDGTKHDYWGQGSQVTVSS”, for which the “polyreactivity (PSR sort gate)” value is “high polyreactivity”. Regarding “QVQLVESGGGLVQAGGSLRLSCAASGGIFRQYAMGWYRQAPGKERELVAAISYNTGSTYYADSVKWRFTISRDNAKNTVYLQMNSLKPEDTAVYYCAKDIVIPATYVEYDYWGKGTQVTVSS”, the “polyreactivity (PSR sort gate)” value is recorded as “low polyreactivity”. The same measure for “QVHLVESGRGLLQAGGSLRLSCAPSGRTFGVYSMGWYSQAPGKERELVAAISWSGDRTYYADSVKGRFTISRDYAKNTVYLQMNSLKPEDPALDYAEYHGAKYDYWGQGTQVTVSS”: “high polyreactivity”; for “QVQLVESGGGLVQAGGSLRLSCAASGFIFRYYALGWYRQAPGKERELVAAISWRGGTTYYADSVKGRFTISRDNAKNTVYLQMQSLKPEDTAVYYCAADWQWDLGPYIYQVEYWGQGTLVTVSS”: “high polyreactivity”.
